The values below come from US10253076B2, “Peptides and combination of peptides for use in immunotherapy against ovarian cancer and other cancers” (immatics biotechnologies GmbH, priority 2015, dated 2019).

Assay [1] has as its system CD8+ T cells. Kind of assay: In vitro immunogenicity: T-cell priming with aAPCs loaded with peptide/MHC and anti-CD28, pMHC multimer readout. The class given is cell-based, human. The note with it: for Wells positive [%]: HLA-A*02 restricted peptides; for wells: percentage of positive wells. As for the experimental part:
In an aspect, the peptides are pre-screened for immunogenicity before being included in the warehouse. By way of example, and not limitation, the immunogenicity of the peptides included in the warehouse is determined by a method comprising in vitro T-cell priming through repeated stimulations of CD8+ T cells from healthy donors with artificial antigen presenting cells loaded with peptide/MHC complexes and anti-CD28 antibody.
In order to obtain information regarding the immunogenicity of the TUMAPs of the present invention, the inventors performed investigations using an in vitro T-cell priming assay based on repeated stimulations of CD8+ T cells with artificial antigen presenting cells (aAPCs) loaded with peptide/MHC complexes and anti-CD28 antibody.
In order to perform in vitro stimulations by artificial antigen presenting cells loaded with peptide-MHC complex (pMHC) and anti-CD28 antibody, the inventors first isolated CD8+ T cells from fresh HLA-A*02 leukapheresis products via positive selection using CD8 microbeads (Miltenyi Biotec, Bergisch-Gladbach, Germany) of healthy donors obtained from the University clinics Mannheim, Germany, after informed consent.
PBMCs and isolated CD8+ lymphocytes were incubated in T-cell medium (TCM) until use consisting of RPMI-Glutamax (Invitrogen, Karlsruhe, Germany) supplemented with 10% heat inactivated human AB serum (PAN-Biotech, Aidenbach, Germany), 100 U/ml Penicillin/100 μg/ml Streptomycin (Cambrex, Cologne, Germany), 1 mM sodium pyruvate (CC Pro, Oberdorla, Germany), 20 μg/ml Gentamycin (Cambrex). 2.5 ng/ml IL-7 (PromoCell, Heidelberg, Germany) and 10 U/ml IL-2 (Novartis Pharma, Nürnberg, Germany) were also added to the TCM at this step.
Generation of pMHC/anti-CD28 coated beads, T-cell stimulations and readout was performed in a highly defined in vitro system using four different pMHC molecules per stimulation condition and 8 different pMHC molecules per readout condition.
The purified co-stimulatory mouse IgG2a anti human CD28 Ab 9.3 (Jung et al., 1987) was chemically biotinylated using Sulfo-N-hydroxysuccinimidobiotin as recommended by the manufacturer (Perbio, Bonn, Germany). Beads used were 5.6 μm diameter streptavidin coated polystyrene particles (Bangs Laboratories, Illinois, USA).
pMHC used for positive and negative control stimulations were A*0201/MLA-001 (peptide […] (SEQ ID NO. 664) from modified Melan-A/MART-1) and A*0201/DDX5-001 ([…] from DDX5, SEQ ID NO. 665), respectively.
800.000 beads/200 μl were coated in 96-well plates in the presence of 4×12.5 ng different biotin-pMHC, washed and 600 ng biotin anti-CD28 were added subsequently in a volume of 200 μl. Stimulations were initiated in 96-well plates by co-incubating […] CD8+ T cells with 2×10^5 washed coated beads in 200 μl TCM supplemented with 5 ng/ml IL-12 (PromoCell) for 3 days at 37° C. Half of the medium was then exchanged by fresh TCM supplemented with 80 U/ml IL-2 and incubating was continued for 4 days at 37° C. This stimulation cycle was performed for a total of three times. For the pMHC multimer readout using 8 different pMHC molecules per condition, a two-dimensional combinatorial coding approach was used as previously described (Andersen et al., 2012) with minor modifications encompassing coupling to 5 different fluorochromes. Finally, multimeric analyses were performed by staining the cells with Live/dead near IR dye (Invitrogen, Karlsruhe, Germany), CD8-FITC antibody clone SK1 (BD, Heidelberg, Germany) and fluorescent pMHC multimers. For analysis, a BD LSRII SORP cytometer equipped with appropriate lasers and filters was used. Peptide specific cells were calculated as percentage of total CD8+ cells. Evaluation of multimeric analysis was done using the FlowJo software (Tree Star, Oregon, USA). In vitro priming of specific multimer+ CD8+ lymphocytes was detected by comparing to negative control stimulations. […]

For assay [2], the target named is HLA-A*02:01 (Homo sapiens, UniProt P04439, D140Y/D185E/D98H/E176V/E277Q/G131W/G231S/I119V/I121R/I166T/I218V/L300P/L318F/N151K/N90K/P208A/P217A/Q86G/Q94H/R138H/R169H/T345S). Briefly: MHC binding assay (UV-ligand exchange, beta2m ELISA, peptide exchange yield). Conditions: binding of HLA-class I restricted peptides to HLA-A*02:01, ranged by peptide exchange yield (UV-ligand exchange, β2m ELISA). The essentials:
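Readout is a β2m ELISA: stabilized complexes captured on streptavidin, detected with HRP-conjugated anti-β2m and TMB at 450 nm, reporting peptide exchange yield. Complexes come from UV-light cleavage of a conditional ligand in HLA-A*02:01 and replacement by the candidate peptide, samples diluted 100-fold.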
On the technique in general: ELISA stands for enzyme-linked immunosorbent assay.

Consider “319 (SLEPQIQPV; listed as Homo sapiens) [compound 319]”, for which, in assay [1], the “Wells positive [%]” value is “″+″ (<20% = +)”. The Peptide exchange result in assay [2] was “″++″ (≥20% = ++)”.

As to “652 (TLWYRAPEV; listed as Homo sapiens) [compound 652]”, the donors result in assay [1] (HLA class I peptides, percentage of positive donors) is listed as “++++ (> = 70% = ++++)”.

Turning to “2 (SLLEADPFL; listed as Homo sapiens) [compound 2]”, the “Wells positive [%]” value in assay [1] is “″+″ (<20% = +)”. Also, the Peptide exchange entry in assay [2] is recorded as “″+++″ (≥50% = +++)”.

For “662 (KIQEILTQV; listed as Homo sapiens) [compound 662]”, in assay [1] (HLA class I peptides), the wells result is listed as “+ (<20% = +)”.

Regarding “283 (ALYIGDGYVIHLA; listed as Homo sapiens) [compound 283]”, the wells result in assay [1] (HLA class I peptides) is reported as “+ (<20% = +)”. In addition, the Peptide exchange entry in assay [2] was “″+++″ (≥50% = +++)”.

For “8 (FTLGNVVGMYL; listed as Homo sapiens) [compound 8]”, in assay [1], the “Wells positive [%]” value was “″+″ (<20% = +)”. In assay [2], the Peptide exchange entry is on record as “″++++″ (≥75% = ++++)”.

As to “663 (KIQEMQHFL; listed as Homo sapiens) [compound 663]”, the wells entry in assay [1] (HLA class I peptides) is “+ (<20% = +)”.

Take “659 (ILFPDIIARA; listed as Homo sapiens) [compound 659]”: the wells entry in assay [1] (HLA class I peptides) is on record as “+ (<20% = +)”.

“379 (IMEGTLTRV; listed as Homo sapiens) [compound 379]”: the Peptide exchange entry in assay [2] is recorded as “″++″ (≥20% = ++)”.

Consider “257 (SIFSAFLSV; listed as Homo sapiens) [compound 257]”, for which, in assay [2], the Peptide exchange entry is given as “″+++″ (≥50% = +++)”.

Consider “129 (GLLDGGVDILL; listed as Homo sapiens) [compound 129]”, for which the Peptide exchange entry in assay [2] is listed as “″+++″ (≥50% = +++)”.

On to “596 (ALLDQTKTLAESAL; listed as Homo sapiens) [compound 596]”, for which, in assay [2], the Peptide exchange result is recorded as “″+++″ (≥50% = +++)”.

Consider “230 (ILVDWLVEV; listed as Homo sapiens) [compound 230]”, for which, in assay [2], the Peptide exchange result was “″+″ (≥10% = +)”.

As for “374 (FLLQQHLISA; listed as Homo sapiens) [compound 374]”, the Peptide exchange entry in assay [2] is “″++″ (≥20% = ++)”.

For the substance “505 (SLAPGDVVRQV; listed as Homo sapiens) [compound 505]”, the Peptide exchange result in assay [2] was “″++″ (≥20% = ++)”.

For the substance “609 (ALWKQLLEL; listed as Homo sapiens) [compound 609]”, the Peptide exchange result in assay [2] is reported as “″+++″ (≥50% = +++)”.

As for “261 (YVLEFLEEI; listed as Homo sapiens) [compound 261]”, the Peptide exchange entry in assay [2] is recorded as “″++″ (≥20% = ++)”.

In the case of “380 (TLIEDEIATI; listed as Homo sapiens) [compound 380]”, the Peptide exchange entry in assay [2] is on record as “″++″ (≥20% = ++)”.

Turning to “140 (YMDAPKAAL; listed as Homo sapiens) [compound 140]”, in assay [2], the Peptide exchange entry is recorded as “″++″ (≥20% = ++)”.

As for “85 (KMSELRVTL; listed as Homo sapiens) [compound 85]”, in assay [2], the Peptide exchange result is “″+++″ (≥50% = +++)”.

Consider “447 (QLVPALAKV; listed as Homo sapiens) [compound 447]”, for which the Peptide exchange result in assay [2] is “″++″ (≥20% = ++)”.

Consider “167 (KVLEVTEEFGV; listed as Homo sapiens) [compound 167]”, for which, in assay [2], the Peptide exchange entry is “″+++″ (≥50% = +++)”.

On to “131 (FVPPVTVFPSL; listed as Homo sapiens) [compound 131]”, for which the Peptide exchange entry in assay [2] was “″++″ (≥20% = ++)”.

Regarding “516 (AVGPASILKEV; listed as Homo sapiens) [compound 516]”, the Peptide exchange result in assay [2] is “″++″ (≥20% = ++)”.

“364 (LLQNEQFEL; listed as Homo sapiens) [compound 364]”: the Peptide exchange result in assay [2] was “″+++″ (≥50% = +++)”.

Take “26 (ALLELAEEL; listed as Homo sapiens) [compound 26]”: in assay [2], the Peptide exchange entry is “″+++″ (≥50% = +++)”.

Turning to “35 (KINDTIYEV; listed as Homo sapiens) [compound 35]”, in assay [2], the Peptide exchange entry is listed as “″+++″ (≥50% = +++)”.

As to “258 (ELAERVPAI; listed as Homo sapiens) [compound 258]”, in assay [2], the Peptide exchange result is given as “″++″ (≥20% = ++)”.

With “187 (RQISIRGIVGV; listed as Homo sapiens) [compound 187]”, the Peptide exchange result in assay [2] is recorded as “″+++″ (≥50% = +++)”.

With “155 (RVANLHFPSV; listed as Homo sapiens) [compound 155]”, in assay [2], the Peptide exchange result is “″+++″ (≥50% = +++)”.

As for “69 (FQLDPSSGVLVTV; listed as Homo sapiens) [compound 69]”, the Peptide exchange result in assay [2] is “″+++″ (≥50% = +++)”.

Regarding “453 (KLLEATSAV; listed as Homo sapiens) [compound 453]”, the Peptide exchange result in assay [2] is “″++″ (≥20% = ++)”.

As for “544 (LLWDVPAPSL; listed as Homo sapiens) [compound 544]”, the Peptide exchange result in assay [2] was “″+++″ (≥50% = +++)”.

Regarding “331 (KVDTVWVNV; listed as Homo sapiens) [compound 331]”, in assay [2], the Peptide exchange entry is “″+++″ (≥50% = +++)”.

With “568 (TLYDIAHTPGV; listed as Homo sapiens) [compound 568]”, the Peptide exchange entry in assay [2] is “″++++″ (≥75% = ++++)”.

With “515 (LLQELVLFL; listed as Homo sapiens) [compound 515]”, in assay [2], the Peptide exchange result is “″+++″ (≥50% = +++)”.

For the substance “96 (YIFTDNPAAV; listed as Homo sapiens) [compound 96]”, the Peptide exchange entry in assay [2] is “″+++″ (≥50% = +++)”.

On to “454 (KLPPPPPQA; listed as Homo sapiens) [compound 454]”, for which, in assay [2], the Peptide exchange entry is listed as “″+++″ (≥50% = +++)”.

On to “487 (LLINSVFHV; listed as Homo sapiens) [compound 487]”, for which, in assay [2], the Peptide exchange result is on record as “″+++″ (≥50% = +++)”.

For “99 (ALVSKGLATV; listed as Homo sapiens) [compound 99]”, the Peptide exchange result in assay [2] was “″++″ (≥20% = ++)”.

As to “549 (AMLENASDIKL; listed as Homo sapiens) [compound 549]”, the Peptide exchange entry in assay [2] is “″+++″ (≥50% = +++)”.

Take “340 (ALLSMTFPL; listed as Homo sapiens) [compound 340]”: the Peptide exchange result in assay [2] is given as “″++++″ (≥75% = ++++)”.

“216 (NLWEDPYYL; listed as Homo sapiens) [compound 216]”: the Peptide exchange entry in assay [2] is recorded as “″+++″ (≥50% = +++)”.

Consider “462 (KLAKQPETV; listed as Homo sapiens) [compound 462]”, for which the Peptide exchange entry in assay [2] is recorded as “″+++″ (≥50% = +++)”.

For the substance “488 (FLAEDPKVTL; listed as Homo sapiens) [compound 488]”, the Peptide exchange result in assay [2] is on record as “″+++″ (≥50% = +++)”.

For the substance “305 (SIANFSEFYV; listed as Homo sapiens) [compound 305]”, the Peptide exchange result in assay [2] was “″++++″ (≥75% = ++++)”.

“25 (FLPDEPYIKV; listed as Homo sapiens) [compound 25]”: in assay [2], the Peptide exchange entry is listed as “″+++″ (≥50% = +++)”.

Consider “53 (KMIETDILQKV; listed as Homo sapiens) [compound 53]”, for which, in assay [2], the Peptide exchange entry is reported as “″++++″ (≥75% = ++++)”.

Take “23 (VLLDDIFAQL; listed as Homo sapiens) [compound 23]”: in assay [2], the Peptide exchange result is “″+++″ (≥50% = +++)”.
